This note sets out measurements from article PMC12338045 (Science (New York, N.Y.), 2025).

One assay has as its target T1, Mcm4 (yeast) (budding yeast, UniProt P30665 1-933).
T1 sequence: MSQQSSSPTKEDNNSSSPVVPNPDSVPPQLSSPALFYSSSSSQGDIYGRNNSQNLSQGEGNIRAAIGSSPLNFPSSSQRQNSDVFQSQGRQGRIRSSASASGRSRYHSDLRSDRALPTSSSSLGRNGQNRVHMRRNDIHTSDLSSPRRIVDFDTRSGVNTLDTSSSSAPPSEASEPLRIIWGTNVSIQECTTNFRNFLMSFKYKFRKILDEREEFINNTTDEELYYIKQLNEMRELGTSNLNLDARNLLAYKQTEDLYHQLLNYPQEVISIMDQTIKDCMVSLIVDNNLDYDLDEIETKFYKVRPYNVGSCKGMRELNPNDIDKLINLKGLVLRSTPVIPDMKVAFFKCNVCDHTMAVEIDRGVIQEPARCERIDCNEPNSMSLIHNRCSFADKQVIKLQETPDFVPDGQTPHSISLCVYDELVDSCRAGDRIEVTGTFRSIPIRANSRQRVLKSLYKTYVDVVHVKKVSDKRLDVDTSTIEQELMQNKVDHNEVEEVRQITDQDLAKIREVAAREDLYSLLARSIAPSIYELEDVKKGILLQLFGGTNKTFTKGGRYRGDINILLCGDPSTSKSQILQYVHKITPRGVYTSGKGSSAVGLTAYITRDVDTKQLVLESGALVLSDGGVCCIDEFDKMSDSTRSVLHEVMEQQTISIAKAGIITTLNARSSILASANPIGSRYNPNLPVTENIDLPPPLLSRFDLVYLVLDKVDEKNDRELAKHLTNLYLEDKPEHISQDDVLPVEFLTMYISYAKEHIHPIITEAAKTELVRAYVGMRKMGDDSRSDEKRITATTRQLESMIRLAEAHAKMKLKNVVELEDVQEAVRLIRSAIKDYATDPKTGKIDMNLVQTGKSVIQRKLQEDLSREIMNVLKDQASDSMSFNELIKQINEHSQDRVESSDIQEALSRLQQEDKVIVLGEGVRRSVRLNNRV
The experiment in a line: cryo-EM structure.

In the next assay the target is Mcm3 (yeast) (budding yeast, UniProt P24279 1-971). The experiment in a line: cryo-EM structure.
Chain of Mcm3 (yeast) (P24279 whole entry): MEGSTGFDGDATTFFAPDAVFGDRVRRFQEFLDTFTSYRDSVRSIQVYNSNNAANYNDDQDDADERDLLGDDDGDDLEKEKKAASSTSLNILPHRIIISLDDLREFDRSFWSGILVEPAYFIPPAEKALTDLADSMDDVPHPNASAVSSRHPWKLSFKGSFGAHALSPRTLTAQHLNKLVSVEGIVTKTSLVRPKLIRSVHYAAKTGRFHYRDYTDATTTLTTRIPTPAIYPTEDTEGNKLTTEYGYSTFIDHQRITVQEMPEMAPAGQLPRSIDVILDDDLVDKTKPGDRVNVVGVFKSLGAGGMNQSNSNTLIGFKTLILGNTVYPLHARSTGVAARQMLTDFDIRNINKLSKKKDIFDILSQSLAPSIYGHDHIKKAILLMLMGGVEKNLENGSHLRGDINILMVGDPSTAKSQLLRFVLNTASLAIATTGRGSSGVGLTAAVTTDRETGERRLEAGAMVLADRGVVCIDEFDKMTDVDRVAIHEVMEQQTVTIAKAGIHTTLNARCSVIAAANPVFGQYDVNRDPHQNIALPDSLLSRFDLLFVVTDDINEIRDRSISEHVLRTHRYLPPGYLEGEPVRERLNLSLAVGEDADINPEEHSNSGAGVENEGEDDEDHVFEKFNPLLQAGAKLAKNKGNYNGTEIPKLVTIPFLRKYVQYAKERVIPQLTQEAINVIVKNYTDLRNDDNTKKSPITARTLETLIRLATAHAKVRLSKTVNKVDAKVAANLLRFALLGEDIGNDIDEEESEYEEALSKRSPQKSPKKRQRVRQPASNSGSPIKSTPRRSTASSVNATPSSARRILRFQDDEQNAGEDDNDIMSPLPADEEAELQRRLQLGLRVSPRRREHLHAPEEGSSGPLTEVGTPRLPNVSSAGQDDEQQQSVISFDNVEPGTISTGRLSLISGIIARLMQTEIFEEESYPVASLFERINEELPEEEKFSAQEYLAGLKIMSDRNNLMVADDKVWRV

B1: Mcm7 (yeast) (natural protein, budding yeast)
chain: MSAALPSIQLPVDYNNLFNEITDFLVTFKQDTLSSDATRNENEDENLDAENIEQHLLEKGPKYMAMLQKVANRELNSVIIDLDDILQYQNEKFLQGTQADDLVSAIQQNANHFTELFCRAIDNNMPLPTKEIDYKDDVLDVILNQRRLRNERMLSDRTNEIRSENLMDTTMDPPSSMNDALREVVEDETELFPPNLTRRYFLYFKPLSQNCARRYRKKAISSKPLSVRQIKGDFLGQLITVRGIITRVSDVKPAVEVIAYTCDQCGYEVFQEVNSRTFTPLSECTSEECSQNQTKGQLFMSTRASKFSAFQECKIQELSQQVPVGHIPRSLNIHVNGTLVRSLSPGDIVDVTGIFLPAPYTGFKALKAGLLTETYLEAQFVRQHKKKFASFSLTSDVEERVMELITSGDVYNRLAKSIAPEIYGNLDVKKALLLLLVGGVDKRVGDGMKIRGDINVCLMGDPGVAKSQLLKAICKISPRGVYTTGKGSSGVGLTAAVMKDPVTDEMILEGGALVLADNGICCIDEFDKMDESDRTAIHEVMEQQTISISKAGINTTLNARTSILAAANPLYGRYNPRLSPLDNINLPAALLSRFDILFLMLDIPSRDDDEKLAEHVTYVHMHNKQPDLDFTPVEPSKMREYIAYAKTKRPVMSEAVNDYVVQAYIRLRQDSKREMDSKFSFGQATPRTLLGIIRLSQALAKLRLADMVDIDDVEEALRLVRVSKESLYQETNKSKEDESPTTKIFTIIKKMLQETGKNTLSYENIVKTVRLRGFTMLQLSNCIQEYSYLNVWHLINEGNTLKFVDDGTMDTDQEDSLVSTPKLAPQTTASANVSAQDSDIDLQDA
Regarding B1, the binding result with Mcm4 (yeast) and in the assay with Mcm3 (yeast) was “binds” each time.
